44 molecules from patent US20250368745A1 (published 2025) can be followed below.

Numbering of substitutions follows the chain as printed. Several values for one entry are separate records, joined by “and”; a condition that tells them apart may be missing. Equal values may be shown once.

B1: SA301a HC-N58T (antibody, name in Kabat numbering, V domains shown)
VH: QVQLQESGPGLVKPSQTLSLTCTVSGYSITSDYNSHWIRQPPGKGLEWIGYIHYSGSTTYNPSLKSRVTISRDTSKNQFSLKLSSVTAADTAVYYCARNYGSIYVNYFDYWGQGTLVTVSS
VL: EIVLTQSPATLSLSPGERATLSCSASSSVSYMYWYQQKPGQAPRPLIYRTSNLASGIPARFSGSGSGTDFTLTISSLEPEDFAVYYCQQYHSYPTFGGGTKVEIK
notes: IgG1 kappa
B2: SA301a HC-S54D (antibody, name in Kabat numbering, V domains shown)
VH: B1 VH with S55D, T59N
VL: B1 VL
notes: IgG1 kappa
B3: SA301a HC-S56K (antibody, name in Kabat numbering, V domains shown)
VH: B1 VH with S57K, T59N
VL: B1 VL
notes: IgG1 kappa
B4: SA301a HC-T57N (antibody, name in Kabat numbering, V domains shown)
VH: B1 VH with T58N, T59N
VL: B1 VL
notes: IgG1 kappa
B5: SA301a HC-T57S (antibody, name in Kabat numbering, V domains shown)
VH: B1 VH with T58S, T59N
VL: B1 VL
notes: IgG1 kappa
B6: SA301a HC-S56R (antibody, name in Kabat numbering, V domains shown)
VH: B1 VH with S57R, T59N
VL: B1 VL
notes: IgG1 kappa
B7: SA301a HC-S56T (antibody, name in Kabat numbering, V domains shown)
VH: B1 VH with S57T, T59N
VL: B1 VL
notes: IgG1 kappa
B8: SA301a HC-S56E (antibody, name in Kabat numbering, V domains shown)
VH: B1 VH with S57E, T59N
VL: B1 VL
notes: IgG1 kappa
B9: SA301a HC-S56D (antibody, name in Kabat numbering, V domains shown)
VH: B1 VH with S57D, T59N
VL: B1 VL
notes: IgG1 kappa
B10: SA301a HC-Y59N (antibody, name in Kabat numbering, V domains shown)
VH: B1 VH with T59N, Y60N
VL: B1 VL
notes: IgG1 kappa
B11: SA301a HC-N58Y (antibody, name in Kabat numbering, V domains shown)
VH: B1 VH with T59Y
VL: B1 VL
notes: IgG1 kappa
B12: SA301a HC-S56I (antibody, name in Kabat numbering, V domains shown)
VH: B1 VH with S57I, T59N
VL: B1 VL
notes: IgG1 kappa
B13: SA301a HC-T57A (antibody, name in Kabat numbering, V domains shown)
VH: B1 VH with T58A, T59N
VL: B1 VL
notes: IgG1 kappa
B14: SA301a HC-Y59G (antibody, name in Kabat numbering, V domains shown)
VH: B1 VH with T59N, Y60G
VL: B1 VL
notes: IgG1 kappa
B15: SA301a HC-S56L (antibody, name in Kabat numbering, V domains shown)
VH: B1 VH with S57L, T59N
VL: B1 VL
notes: IgG1 kappa
B16: SA301a HC-Y59F (antibody, name in Kabat numbering, V domains shown)
VH: B1 VH with T59N, Y60F
VL: B1 VL
notes: IgG1 kappa
B17: SA301a HC-Y59L (antibody, name in Kabat numbering, V domains shown)
VH: B1 VH with T59N, Y60L
VL: B1 VL
notes: IgG1 kappa
B18: SA301a HC-T57E (antibody, name in Kabat numbering, V domains shown)
VH: B1 VH with T58E, T59N
VL: B1 VL
notes: IgG1 kappa
B19: SA301a HC-T57D (antibody, name in Kabat numbering, V domains shown)
VH: B1 VH with T58D, T59N
VL: B1 VL
notes: IgG1 kappa
B20: SA301a HC-S56M (antibody, name in Kabat numbering, V domains shown)
VH: B1 VH with S57M, T59N
VL: B1 VL
notes: IgG1 kappa
B21: SA301a HC-T57I (antibody, name in Kabat numbering, V domains shown)
VH: B1 VH with T58I, T59N
VL: B1 VL
notes: IgG1 kappa
B22: SA301a HC-S54A (antibody, name in Kabat numbering, V domains shown)
VH: B1 VH with S55A, T59N
VL: B1 VL
notes: IgG1 kappa
B23: SA301a HC-T57R (antibody, name in Kabat numbering, V domains shown)
VH: B1 VH with T58R, T59N
VL: B1 VL
notes: IgG1 kappa
B24: SA301a HC-T57Y (antibody, name in Kabat numbering, V domains shown)
VH: B1 VH with T58Y, T59N
VL: B1 VL
notes: IgG1 kappa
B25: SA301a HC-N58V (antibody, name in Kabat numbering, V domains shown)
VH: B1 VH with T59V
VL: B1 VL
notes: IgG1 kappa
B26: SA301a HC-S56H (antibody, name in Kabat numbering, V domains shown)
VH: B1 VH with S57H, T59N
VL: B1 VL
notes: IgG1 kappa
B27: SA301a HC-S56P (antibody, name in Kabat numbering, V domains shown)
VH: B1 VH with S57P, T59N
VL: B1 VL
notes: IgG1 kappa
B28: SA301a HC-S56Y (antibody, name in Kabat numbering, V domains shown)
VH: B1 VH with S57Y, T59N
VL: B1 VL
notes: IgG1 kappa
B29: SA301a HC-T57V (antibody, name in Kabat numbering, V domains shown)
VH: B1 VH with T58V, T59N
VL: B1 VL
notes: IgG1 kappa
B30: SA301a HC-T57G (antibody, name in Kabat numbering, V domains shown)
VH: B1 VH with T58G, T59N
VL: B1 VL
notes: IgG1 kappa
B31: SA301a HC-S56G (antibody, name in Kabat numbering, V domains shown)
VH: B1 VH with S57G, T59N
VL: B1 VL
notes: IgG1 kappa
B32: SA301a HC-S54F (antibody, name in Kabat numbering, V domains shown)
VH: B1 VH with S55F, T59N
VL: B1 VL
notes: IgG1 kappa
B33: SA301a HC-Y59D (antibody, name in Kabat numbering, V domains shown)
VH: B1 VH with T59N, Y60D
VL: B1 VL
notes: IgG1 kappa
B34: SA301a HC-T57K (antibody, name in Kabat numbering, V domains shown)
VH: B1 VH with T58K, T59N
VL: B1 VL
notes: IgG1 kappa
B35: SA301a HC-S56F (antibody, name in Kabat numbering, V domains shown)
VH: B1 VH with S57F, T59N
VL: B1 VL
notes: IgG1 kappa
B36: SA301a HC-Y59A (antibody, name in Kabat numbering, V domains shown)
VH: B1 VH with T59N, Y60A
VL: B1 VL
notes: IgG1 kappa
B37: SA301a HC-Y59E (antibody, name in Kabat numbering, V domains shown)
VH: B1 VH with T59N, Y60E
VL: B1 VL
notes: IgG1 kappa
B38: SA301a HC-T57M (antibody, name in Kabat numbering, V domains shown)
VH: B1 VH with T58M, T59N
VL: B1 VL
notes: IgG1 kappa
B39: SA301a HC-S56V (antibody, name in Kabat numbering, V domains shown)
VH: B1 VH with S57V, T59N
VL: B1 VL
notes: IgG1 kappa
B40: SA301a HC-T57L (antibody, name in Kabat numbering, V domains shown)
VH: B1 VH with T58L, T59N
VL: B1 VL
notes: IgG1 kappa
B41: SA301a HC-Y59K (antibody, name in Kabat numbering, V domains shown)
VH: B1 VH with T59N, Y60K
VL: B1 VL
notes: IgG1 kappa
B42: SA301a HC-S56A (antibody, name in Kabat numbering, V domains shown)
VH: B1 VH with S57A, T59N
VL: B1 VL
notes: IgG1 kappa
B43: SA301a HC-T57Q (antibody, name in Kabat numbering, V domains shown)
VH: B1 VH with T58Q, T59N
VL: B1 VL
notes: IgG1 kappa
B44: SA301a HC-T57F (antibody, name in Kabat numbering, V domains shown)
VH: B1 VH with T58F, T59N
VL: B1 VL
notes: IgG1 kappa

In this experiment the target is T1, human IL-18BP (human, UniProt O95998 31-194).
T1 construct: UniProt printed as 095998; also called hIL-18BP
T1 sequence: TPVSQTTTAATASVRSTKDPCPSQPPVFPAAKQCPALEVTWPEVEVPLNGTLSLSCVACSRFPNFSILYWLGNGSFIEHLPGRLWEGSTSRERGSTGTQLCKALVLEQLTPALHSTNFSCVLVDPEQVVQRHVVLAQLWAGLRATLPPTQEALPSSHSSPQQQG
The experiment in a line: BLI, apparent KD. (In BLI a coated tip is dipped into the sample, and binding shifts an interference pattern.)
Take B1: the Kd amounted to 0.47 nM.
On to B2, for which the Kd is 0.22 nM.
On to B3, for which the Kd amounted to 0.64 nM.
In the case of B4, the Kd is 0.86 nM.
The figure for B5 is 0.37 nM; for B6 it is 0.17 nM; for B7 it is 0.45 nM.
For the molecule B8, the Kd turned out to be 0.48 nM.
Consider B9, for which the Kd amounted to 0.62 nM.
With B10, the Kd was 0.79 nM.
The value for B11 was 0.41 nM; that for B12 was 0.48 nM; that for B13 was 0.9 nM.
The figure for B14 is 1.59 nM.
As for B15, the Kd was 0.36 nM.
The value for B16 was 0.87 nM; that for B17 was 0.42 nM; that for B18 was 0.42 nM.
Turning to B19, the Kd was found to be 1.73 nM.
Turning to B20, the Kd was found to be 0.46 nM.
The figure for B21 is 0.28 nM.
The figure for B22 is 0.11 nM; for B23 it is 0.67 nM; for B24 it is 1.74 nM.
Regarding B25, the Kd was 0.44 nM.
The value for B26 was 0.55 nM; that for B27 was 0.97 nM; that for B28 was 1 nM.
For B29, the Kd was 0.36 nM.
The figure for B30 is 0.11 nM; for B31 it is 0.46 nM.
The figure for B32 is 0.56 nM; for B33 it is 1.25 nM and 0.63 nM; for B34 it is 0.52 nM.
As for B35, the Kd turned out to be 0.7 nM.
The figure for B36 is 0.35 nM; for B37 it is 0.18 nM.
The figure for B38 is 0.18 nM; for B39 it is 0.25 nM.
The figure for B40 is 0.32 nM.
With B41, the Kd turned out to be 0.12 nM.
The value for B42 was 0.2 nM; that for B43 was 0.91 nM.
The value for B44 was 1.22 nM.
